tested on: Escherichia coli TOP10; assay: shrunken log2 fold change of peptide-encoding DNA abundance (4.5 h post-induction vs induction); higher = less antimicrobial activity (less host growth inhibition); conditions: time post-induction: 4.5 h; library: site-saturation at positions 5, 18, 19, 20
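Further: peptides expressed intracellularly from a pBAD plasmid library in pooled LB shake-flask culture, induced with 0.3% L-arabinose, DNA abundance read by NGS, three biological replicates, DESeq2 with apeglm shrinkage.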

| Sequence | shrunken log2 fold change |
| --- | --- |
| RRIRVRPPRLPRPRPRPRWWPRP | 0.0125 |
| RRIRPRPPRLPRPRPRPFYSPRP | -0.161 |
| RRIRHRPPRLPRPRPRPMCEPRP | -0.293 |
| RRIRARPPRLPRPRPRPARWPRP | 0.95 |
| RRIRVRPPRLPRPRPRPRLMPRP | -0.0256 |
| RRIRTRPPRLPRPRPRPTQSPRP | 0.311 |
| RRIRDRPPRLPRPRPRPDHEPRP | -0.148 |
| RRIRRRPPRLPRPRPRPNYGPRP | 0.00704 |
| RRIRWRPPRLPRPRPRPCWNPRP | 0.11 |
| RRIRLRPPRLPRPRPRPMLAPRP | 0.369 |
| RRIRRRPPRLPRPRPRPTVVPRP | 0.0199 |
| RRIRARPPRLPRPRPRPNSQPRP | 0.0062 |
| RRIRERPPRLPRPRPRPDTCPRP | -0.0337 |
| RRIRQRPPRLPRPRPRPYIIPRP | -0.332 |
| RRIRQRPPRLPRPRPRPLNPPRP | -0.303 |
| RRIRVRPPRLPRPRPRPGELPRP | -0.0483 |
| RRIRERPPRLPRPRPRPNMVPRP | -0.61 |
| RRIRMRPPRLPRPRPRPAPPPRP | 1.43 |
| RRIRLRPPRLPRPRPRPSVMPRP | -0.199 |
| RRIRQRPPRLPRPRPRPCPHPRP | -0.141 |
| RRIRCRPPRLPRPRPRPPCEPRP | -0.0942 |
| RRIRRRPPRLPRPRPRPHNIPRP | -0.127 |
| RRIRCRPPRLPRPRPRPPTQPRP | 0.515 |
| RRIRCRPPRLPRPRPRPLYSPRP | -0.672 |
| RRIRYRPPRLPRPRPRPSWKPRP | -0.111 |

| Sequence | shrunken log2 fold change |
| --- | --- |
| RRIRVRPPRLPRPRPRPESVPRP | -0.204 |
| RRIRRRPPRLPRPRPRPAELPRP | -0.0392 |
| RRIRFRPPRLPRPRPRPAFKPRP | -0.347 |
| RRIRCRPPRLPRPRPRPGTTPRP | 0.844 |
| RRIRFRPPRLPRPRPRPSNSPRP | -0.723 |
| RRIRFRPPRLPRPRPRPVACPRP | -0.347 |
| RRIRVRPPRLPRPRPRPMTIPRP | -0.435 |
| RRIRDRPPRLPRPRPRPTVHPRP | 0.231 |
| RRIRKRPPRLPRPRPRPKCGPRP | 0.0305 |
| RRIRYRPPRLPRPRPRPTCHPRP | -1.16 |
| RRIRVRPPRLPRPRPRPEQMPRP | 0.212 |
| RRIRARPPRLPRPRPRPCNIPRP | -0.671 |
| RRIRGRPPRLPRPRPRPVVVPRP | 0.985 |
| RRIRQRPPRLPRPRPRPYYRPRP | -0.124 |
| RRIRQRPPRLPRPRPRPYLYPRP | -0.838 |
| RRIRFRPPRLPRPRPRPPVSPRP | 0.0761 |
| RRIRFRPPRLPRPRPRPHDYPRP | -0.323 |
| RRIRCRPPRLPRPRPRPGVRPRP | 0.32 |
| RRIRGRPPRLPRPRPRPLYCPRP | -0.0212 |
| RRIRCRPPRLPRPRPRPMLFPRP | 0.545 |
| RRIRPRPPRLPRPRPRPGSAPRP | 0.18 |
| RRIRERPPRLPRPRPRPNTMPRP | -0.122 |
| RRIRIRPPRLPRPRPRPCAMPRP | -0.424 |
| RRIRMRPPRLPRPRPRPNTLPRP | -0.507 |
| RRIRSRPPRLPRPRPRPRQTPRP | 0.0651 |

| Sequence | shrunken log2 fold change |
| --- | --- |
| RRIRDRPPRLPRPRPRPVWVPRP | -0.203 |
| RRIRSRPPRLPRPRPRPKQIPRP | 0.0712 |
| RRIRCRPPRLPRPRPRPNKDPRP | -0.534 |
| RRIRVRPPRLPRPRPRPNLLPRP | -0.22 |
| RRIRVRPPRLPRPRPRPMARPRP | 0.0955 |
| RRIRQRPPRLPRPRPRPATCPRP | -0.0483 |
| RRIRGRPPRLPRPRPRPFFLPRP | 0.301 |
| RRIRIRPPRLPRPRPRPRVYPRP | 0.00283 |
| RRIRERPPRLPRPRPRPDGEPRP | -0.115 |
| RRIRNRPPRLPRPRPRPQQCPRP | -0.0851 |
| RRIRHRPPRLPRPRPRPFLKPRP | -0.0136 |
| RRIRRRPPRLPRPRPRPQYIPRP | 0.0837 |
| RRIRIRPPRLPRPRPRPPCWPRP | 0.836 |
| RRIRGRPPRLPRPRPRPCHNPRP | 0.033 |
| RRIRARPPRLPRPRPRPTGWPRP | 0.756 |
| RRIRGRPPRLPRPRPRPCGIPRP | 0.206 |
| RRIRGRPPRLPRPRPRPWGGPRP | 0.808 |
| RRIRCRPPRLPRPRPRPYLSPRP | -0.577 |
| RRIRSRPPRLPRPRPRPPSAPRP | 0.646 |
| RRIRPRPPRLPRPRPRPGDGPRP | 0.979 |
| RRIRTRPPRLPRPRPRPAGEPRP | 0.323 |
| RRIRDRPPRLPRPRPRPVQCPRP | -0.242 |
| RRIRQRPPRLPRPRPRPLPTPRP | 0.131 |
| RRIRVRPPRLPRPRPRPLDYPRP | -0.244 |
| RRIRSRPPRLPRPRPRPSDRPRP | -0.254 |
